T1: recombinant purified human RGM A (human, UniProt Q96B86 48-424, limits assumed)
T1 construct: Bought recombinant protein (R&D Systems); also called hRGM A; hRGMA
T1 sequence: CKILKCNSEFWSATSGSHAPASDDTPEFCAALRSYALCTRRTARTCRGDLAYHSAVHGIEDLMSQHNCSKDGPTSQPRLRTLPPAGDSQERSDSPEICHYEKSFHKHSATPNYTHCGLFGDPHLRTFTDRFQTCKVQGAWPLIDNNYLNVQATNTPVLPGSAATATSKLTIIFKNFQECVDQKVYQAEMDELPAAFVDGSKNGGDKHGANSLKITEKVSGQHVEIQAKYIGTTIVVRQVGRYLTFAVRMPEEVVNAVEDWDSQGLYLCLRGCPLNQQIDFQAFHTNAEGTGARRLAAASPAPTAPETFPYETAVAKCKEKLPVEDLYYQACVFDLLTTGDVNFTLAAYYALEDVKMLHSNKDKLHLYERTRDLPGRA


What was measured:
[1] = biological target: T1, recombinant purified human RGM A; experiment: direct ELISA, plate coated with hRGM A at 2 µg/ml, biotinylated antibody in 1:5 dilution steps, streptavidin-HRP, OD 450 nm
Experimental: (i) Direct binding ELISA plates were coated with hRGM A (R&D) at a concentration of 2 μg/ml in Carbonate buffer. The wells were then blocked with 2% Blocking solution (Bio-Rad) for 1 hour at room temperature. Biotinylated antibodies were serially diluted with a 1:5 dilution factor in 0.1% BSNPBS down the plate and incubated for 1 hour at room temperature. The detection reagent was a 1:10,000 dilution of streptavidin-HRP in 0.1% BSNPBS. Detection was done with a TMB reagent, which was stopped with 2N H₂SO₄ and OD was read at 450 nm.
FAGS was carried out as described in section (ii).

[2] = biological target: T1, recombinant purified human RGM A; experiment: SPR (Biacore 3000), antibody captured by anti-human IgG Fc, hRGMA in solution, 25 °C
Experimental: The BIACORE assay (Biacore, Inc, Piscataway, N.J.) determines the affinity of antibodies with kinetic measurements of on-, off-rate constants. Binding of antibodies to recombinant purified human RGMA was determined by surface plasmon resonance-based measurements with a Biacore® 3000 instrument (Biacore® AB, Uppsala, Sweden) using running HBS-EP (10 mM HEPES [pH 7.4], 150 mM NaCl, 3 mM EDTA, and 0.005% surfactant P20) at 25° C. All chemicals were obtained from Biacore® AB (Uppsala, Sweden). Approximately 5000 RU of goat anti-human IgG, (Fey), fragment specific polyclonal antibody (Pierce Biotechnology Inc, Rockford, Ill.) diluted in 10 mM sodium acetate (pH 4.5) was directly immobilized across a CM5 research grade biosensor chip using a standard amine coupling kit according to manufacturers instructions and procedures at 25 μg/ml. Unreacted moieties on the biosensor surface were blocked with ethanolamine. Modified carboxymethyl dextran surface in flowcell 2 and 4 was used as a reaction surface. Unmodified carboxymethyl dextran without goat anti-human IgG in flow cell 1 and 3 was used as the reference surface. Purified antibodies were diluted in HEPES-buffered saline for capture across goat anti-humanIgG specific reaction surfaces. Human antibodies to be captured as a ligand (25 μg/ml) were injected over reaction matrices at a flow rate of 5 μl/min. The association and dissociation rate constants, kₒₙ (unit M⁻¹s⁻¹) and koff (unit s⁻¹) were determined under a continuous flow rate of 25 μl/min. Rate constants were derived by making kinetic binding measurements at […] different antigen concentrations ranging from 0.39-50 nM. For kinetic analysis, rate equations derived from the 1:1 Langmuir binding model were fitted simultaneously to association and dissociation phases of all eight injections (using global fit analysis) with the use of Biaevaluation 4.0.1 software. The equilibrium dissociation constant (unit M) of the reaction between humanized antibodies and recombinant purified human RGMA was then calculated from the kinetic rate constants by the following formula: KD=koff/kₒₙ.

[3] = biological target: T1, recombinant purified human RGM A; experiment: competition ELISA on coated hRGMA; competitor biotinylated chimeric 5F9
Experimental: ELISA plates (Costar 3369) were coated overnight at 4° c. with 50 μl/well of 0.25 μg/ml hRGMA in 0.2 M sodium carbonate-bicarbonate buffer, pH 9.4, washed with Wash Buffer (PBS containing 0.1% Tween 20), and blocked for 1 hr at room temperature with 200 μl/well of 2% nonfat dry milk in PBS. After washing with Wash Buffer, a mixture of a biotinylated chimeric 5F9 (0.1 IJg/ml final concentration) and unlabelled competitor test antibody starting at 50 IJg/ml final concentration and serially diluted 5-fold) in 50 μl/well of ELISA buffer was added in duplicate. After incubating the plates for 1 hr at room temperature, and washing with Wash Buffer, bound antibodies were detected using 100 μl/well of 1:10,000 dilution of HRP-conjugated streptavidin (Fitzgerald) in ELISA buffer. After incubating for 1 hr at room temperature, and washing with Wash Buffer, color development was performed by adding 100 μl/well of TMB Buffer (Zymed). After incubating for 15 min at room temperature, color development was stopped by adding 50 μl/well of 1 N hydrochloric acid. Absorbance was read at 490 nm.

| Binder | EC50 (read off the curve) [1] | Kd [2] | koff [2] | kon [2] | IC50 [3] |
| --- | --- | --- | --- | --- | --- |
| rat anti-human RGM A monoclonal antibody 5F9 (antibody, V domains shown, Rat hybridoma antibody; also called ML69-5F9; MAB 5F9) VH: EVQLVESGGGLVQPGSSLKLSCVASGFTFSNYGMNWIRQAPKKGLEWIGMIYYDSSEKHYADSVKGRFTISRDNSKNTLYLEMNSLRSEDTAIYYCAKGTTPDYWGQGVMVTVSS VL: DVVLTQTPVSLSVTLGDQASMSCRSSQSLEYSDGYTFLEWFLQKPGQSPQLLIYEVSNRFSGVPDRFIGSGSGTDFTLKISRVEPEDLGVYYCFQATHDPLTFGSGTKLEIKR | ~0.08 µg/mL |  |  |  |  |
| humanized antibody h5F9.21 (antibody, V domains shown) VH: EVQLVESGGGVVQPGRSLRLSCAASGFTFSNYGMNWIRQAPGKGLEWIGMIYYDSSEKHYADSVKGRFTISRDNSKNTLYLQMNSLRAEDTAVYYCAKGTTPDYWGQGTMVTVSS VL: DVVLTQSPLSLPVTLGQPASISCRSSQSLEYSDGYTFLEWFLQKPGQSPQLLIYEVSNRFSGVPDRFSGSGSGTDFTLKISRVEAEDVGVYYCFQATHDPLTFGQGTKLEIKR |  | 7.59 nM | 0.00269 s⁻¹ | 355000 M⁻¹ s⁻¹ | 0.6 µg/mL |
| humanized antibody h5F9.24 (antibody, V domains shown) VH: EVQLVESGGGLVQPGGSLRLSCAASGFTFSNYGMNWIRQAPGKGLEWIGMIYYDSSEKHYADSVKGRFTISRDNSKNTLYLQMNSLRAEDTAVYYCAKGTTPDYWGQGTMVTVSS VL: DVVLTQSPLSLPVTLGQPASISCRSSQSLEYSDGYTFLEWFQQRPGQSPRRLIYEVSNRFSGVPDRFSGSGSGTDFTLKISRVEAEDVGVYYCFQATHDPLTFGQGTKLEIKR |  |  |  |  | 1.32 µg/mL |

The remaining lines, values ahead:

| EC50 (read off the curve) [1] | Kd [2] | koff [2] | kon [2] | IC50 [3] | Binder |
| --- | --- | --- | --- | --- | --- |
|  | 3.09 nM | 0.00236 s⁻¹ | 765000 M⁻¹ s⁻¹ |  | chimeric 5F9 (antibody, V domains shown, also called chimeric human-rat 5F9; biotinylated chimeric 5F9) VH: EVQLVESGGGLVQPGSSLKLSCVASGFTFSNYGMNWIRQAPKKGLEWIGMIYYDSSEKHYADSVKGRFTISRDNSKNTLYLEMNSLRSEDTAIYYCAKGTTPDYWGQGVMVTVSS VL: DVVLTQTPVSLSVTLGDQASMSCRSSQSLEYSDGYTFLEWFLQKPGQSPQLLIYEVSNRFSGVPDRFIGSGSGTDFTLKISRVEPEDLGVYYCFQATHDPLTFGSGTKLEIKR |
|  | 4.37 nM | 0.00221 s⁻¹ | 507000 M⁻¹ s⁻¹ | 0.55 µg/mL | humanized antibody h5F9.23 (antibody, V domains shown) VH: EVQLVESGGGLVQPGGSLRLSCAASGFTFSNYGMNWIRQAPGKGLEWIGMIYYDSSEKHYADSVKGRFTISRDNSKNTLYLQMNSLRAEDTAVYYCAKGTTPDYWGQGTMVTVSS VL: DVVLTQSPLSLPVTLGQPASISCRSSQSLEYSDGYTFLEWFQQRPGQSPRLLIYEVSNRFSGVPDRFSGSGSGTDFTLKISRVEAEDVGVYYCFQATHDPLTFGQGTKLEIKR |
|  | 5.78 nM | 0.00329 s⁻¹ | 570000 M⁻¹ s⁻¹ | 0.66 µg/mL | humanized antibody h5F9.25 (antibody, V domains shown) VH: EVQLVESGGGLVQPGGSLRLSCAASGFTFSNYGMNWIRQAPGKGLEWIGMIYYDSSEKHYADSVKGRFTISRDNSKNTLYLQMNSLRAEDTAVYYCAKGTTPDYWGQGTMVTVSS VL: DVVLTQSPLSLPVTLGQPASISCRSSQSLEYSDGYTFLEWFLQKPGQSPQLLIYEVSNRFSGVPDRFSGSGSGTDFTLKISRVEAEDVGVYYCFQATHDPLTFGQGTKLEIKR |
